Laboratory results: a protein production outcome set (Wang et al. 2014)

Experiment: label from the status in PepcDB records
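Also: failed if final PepcDB status was selected cloned or expressed and not failed if soluble or beyond.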

| Sequence | protein production |
| --- | --- |
| MIHAVAPCCPHAPRTTWEFHLRLLPLATALTLAVAMGVTPAQENRLPDIGSSAGELLTPARQAEYGKMMLAELRNYDYVLDDPLITDWLQTMGTRLGANSDQPQQPFTFFMLRDRQINAFATLGGYVAVNAGLVLTAEREDEVAAVLSHEIAHVTQQHVLRAVERAQRDQIPILLGMLAAVVAAQQAGGNSKGDATMATITSAMGLMQQRQIDYTRSNESEADRLGIRTLARSGYDVDAMAGFFERMSVAMRANEGGYSAPDFLQTHPVTVTRISEAKARAEQMKKNTVVLTTSVPGGSRQERVDPADPSLSEPLSHNGNALLPYALRLPVDALSRGADQQGFDWAKERLRVLSAATPDAAIREYENLRRSAKQGLSDAQRYGLALAKLRNSGGRPSEPVAELSSLLEAHPDNLWLALGLSQAQARVGQREAANARFDALLKQLPNNRAVALTYASALNEQASKESGQRARQVLEPLVHRSSDDPLLQQSYARACELSGDQLRASEAYAEAAFLNGRAEQALIQLEALKKKDLDYVTRARVDARIAAITPTVLELRRQGIRDPDLSTR | failed |
| MSCRHGTTRCRSLCDYGGLSMQYVNTCPVLNVEECDRLSFMPYLFGTDFMLAELQVYALAKKWMPGYEGGFWHFIRLPEGGGYMMPDCGRVHLVSSENWFDRTVSADAAGIILTSLAINRRLAAHHDSSNPALTRLYMLRDAQLWNHITFHPECSAIYAALD | failed |
| MQSSQVKSAMRALEIMEFFRAVKQPRSMSEISIALGYPQSSTTVLLKTLISLGYLNFNRKERLYFPTLKVSALGDWIANSLFSSRDILEVLQDIHMETGETVAIATKNDIYLQYIQIIESVHALRFHVDENAIRPLTMSSNGWMLMSTMNDKAIDNTVRRANTITQKDGIRFEVDDMMARIRQVREQGYASAEHIPFVGGGTICVLLPMTIQGQPVTMGLGGALDRIKQNYDRYLELLLNGVQQLKKSDSFHQPIELAH | failed |
| MNLAQSNREIVELLVPIIVGYMSLFISSIFVYRIGKIILRRDSISLISAIIFLLNPSTIFCLLYSPKNYGFASVGYYFVPLLYLMSYYYYLKKDWKKFTAFTVALTLTSPLSYLIAITFIVYLLIRNRIDEKSLSWSLLRENKISLVLILVSLIIGVLVIPQTLQHFSSLLIASIYPQYTSLNYIYDNVYFKLTYWFILFGVFSFLPIFSPLELIPALPYLLVGLFSSYIPYYSYGYYPYYFLALPMLIMGFIRTINLIKDDKRTMLISYVFIFLFNVALLYVILE | failed |
| AIDENKQKALAAALGQIEKQFGKGSIMRLGEDRSMDVETISTGSLSLDIALGAGGLPMGRIVELYGPESSGKTTLTLQVIAAAQREGKTCAFIDAEHALDPIYARKLGVDIDNLLCSQPDTGEQALEICDALARSGAVDVIVVDSVAALTPKAEIEGEIGDSHMGLAARMMSQAMRKLAGNLKQSNTLLIFINQIRMKIGVMFGNPETTTGGNALKFYASVRLDIRRIGAVKEGENVVGSETRVKVVKNKIAAPFKQAEFQILYGEGINFYGELVDLGVKEKLIEKAGAWYSYKGEKIGQGKANATAWLKDNPETAKEIEKKVRELLLSNPNSTPDFSVDDSEGVAETNEDF | not failed |
| MGLPAHHIDAFLDRLRTAHYSEVSLRKKRRVLCAFSGWMKHRNIDLIDLDESVTARFMKRMIDASRDRVQRARPTLRQFLAYLRAEAIVCSPTLGSQSAIAHTYRRYLDYLRQDRGLAKNSLLVYGPFIRDFLDSHSAGDGSLLPDAFDAVTIRNHLLARSKGRSAEYTRLMAVALRSFCHFLFLRGDTARDLAGSVPSVRKWRQSTVPTFLTPEQQEALIASADRSTPTGLRDYAILLLLARLGLRAGEIIEIELDDIHWRSGELVVHGKGQMVEHVPLSSEVGAAIATYLRDGRGASASRRVFLRRLAPRVGLAGPAAIGKIVCQAFARVGFRPACRGAAHLFRHGLATTMIRHGASMAEIAEVLRHRSPDSTAIYAKVAFEDLRGVARSWPTAGGAILEHHHHHH | not failed |
| MSQEQRMQKTFEVENHLGYRILRWVLLVALLSGILMSAVQVVLDAKRVSAELERDAAQTLAMVEDSATQAVFSIDDTLAQQVVDGLFALEPIHMAKITHPDGDELGDRLRPLQDSPFRPLTDPIFGQVREYRESLTRGSNPDLVYGYLEVHYDTAPYARTWLGRALVTFASGIALALILGIVLFVVFHLLLTRPLLRIVQSVKKVDPAHPDDRLVSIPEGHRADELGLWVNATNNLLVAIGDTQKKHREAEDRVTRLARYDTLTGLPSRDAFMEDLQGAIERAQEGHSSIALMVCGIDDFKSVNEQCGFRTGDTILQTVASRLTANLSSDRFNVARLGSDQFVIVEKHLRDGFQAAETAEKVLATIGSPINSGNHRISMTATLGISLFPSDADQADRLLQSAEQTMALAKQTGHNHFQFYVASIDKEIRERKQMEKDLAQALANHEFHLVYQPQINLETRRVIGAEALLRWEHPEHGMIPPDLFIPVAEANGSIVEIGQWVLDQACWQAARWASEGTHLRIAVNLSAVQLRQESIVDDILNTLKRHNIPAGRLELEVTETSFMTNLTDAVAKLHRLHRAGISIAVDDFGTGYSSLTYLKQMPVQHLKIDKQFIRDLLINEEDTRIANTIIDLGKSLNLTVVAEGVETAEQEYYLSQRGCALAQGYFFSKPLLPRDFANFVQTFHARIVENNA | failed |
| RPQGLHLELETRLQKMYGIRQVIVVEATEPDDEESIKQAIGSAAAHYLETSLSAQDHIGISSWSSTIRAMVSHMHPQPGKQSAQEVVQLLGGVGNKGAFEATLLTQRLATLLNCPAFLLPSQSIEQSVESKQRIVEMEEVKEVLHRFDSITLAIVGIGELEPSQLLRNSGNYYTEDMLRVLAERGAVGDICLRYFDAQGKPVLEEDEEFVVSMGLGKLRSINRVLGLAGGVRKVQAIKGALLGGYLDVLITDVGTARGLGG | not failed |
| MGEIRNYIKLILIGVAILVTVTMIISATGCDILPPPASAIKPPQYINASSGEVEDPKAIARRFLTPGTYFSYPTHPRNADAVWEVDIDGDGRAELLTLYRGRDLKNNGVEVFGVFILKQDENHEWQIFWEQQYTANIVALDWADVRDITGDNYPELLIGWNIGYRIGSNLDIYSLKEEDKPRLISSIKYSEIVGIEDRRGINNEIKPVLMMYLFDEEMYESENEGRKDEYFHILQWDYKEWMGGGLVEADDFYASYYVNVIEDLKESLERYSNNYYQWYILALAQLRSGKPMDALESVGKVLEITQRYINRHGERTVKEVFKYQKKARILKAAAYIKMGKYHESIIESNYVLGNYDIDDKELAQIYLNLGYAYAGLKQYEMAGTYFNKSCETAETVYKEGTALYLLNSYKAKKQLEYIKPFLTSSH | failed |
| MNSTIIIVGILALVFIFLVFGVSSKPLRFIGKALFHVTLGVALLFIVNVVGTYFDFHLPINLGTATITSLLGLPGVAALVVIKLYIMPR | failed |
| MSDNNDRMYELEYPSPEVSGQTAGGPTLIVALQGYADAGHAVESSSSHLMDALDHRLIASFNNDELIDYRSRRPVVVIEHNEVTSMDELNLGLHVVRDNDNKPFLMLSGPEPDLRWGDFSNAVVDLVEKFGVENTICLYAAPMTVPHTRPTVVTAHGNSTDRLKDQVSLDTRMTVPGSASLMLEKLLKDKGKNVSGYTVHVPHYVSASPYPAATLKLLQSIADSADLNLPLLALERDAEKVHRQLMEQTEESSEIQRVVGALEQQYDSELERYRNRHPQAVMPGESELPSGDEIGAEFEKFLADLDDQGGSDHKETPEA | not failed |
| MRIVAPVMPRHFDEAQAIDISKYEDVNLIEWRADFLPKDEIVAVAPAIFEKFAGKEIIFTLRTVQEGGNITLSSQEYVDIIKEINAIYNPDYIDFEYFTHKSVFQEMLDFPNLILSYHNFEETPENLMEAFSEMTKLAPRVVKIAVMPQSEQDVLDLMNYTRGFKTLNPEQEFATISMGKLGRLSRFAGDVIGSSWTYVSLDHVSGPGQVTLNDMKRIIEVLEMDISN | not failed |
| MAQLSARAREDPAAVVDCLPELRQELATLDPRPREHAAEVVATIAHHYPEAARTAVDDIRPLLSDANPGVRAEAARALAEVATTFPDAVYPSVCDLLDRLTDDHYESRVNAAWALAELATEQPAGLRPAVEALCGVLTDDVAAVRAGGVWALAELAEEYPEPVRNAVPALRRLLDDDATLVRVHAARALAVLAETHPDAVEPARVDLEAFGNGEPEDLRKAVTFALAQLDEQTTEAKATSTAGATIDDPLPEEEWIFGGSDTETTATSSGLSAGGIPETVPDVPTPDLSYDDLKKQTTVENGDLSAVYRAAASTENGTVPVALKELRPSDGATLDSDLAHEAYTEARRWEGLDDHDHIVTLVDYGREPTVWFAMEYMDAGHLAEVADSLAFEHRLWSALVLTRAIRRAHRAGILHLNLKPENVLFRTVDDGWAVPKISDWGMEIQPHQDDHDVVPRYAAPEQLADDGRTDGVTDVYQLGRAFYQLFTGRPAFETTPECPADIVEAEPPAPSDIASVPAAVGDIIRTAMAPSQPDRYGAVVYLQEELETICADHGVPTT | failed |
| VATPRGRLRVASPVLFSQLAMGRIGAGFYAAYPEVIIEVTAEDRLVDLVEEQFDVAIRINPDPDSRLVGRCFARDRLVVVAAPELPRPMPGAIRQTPAIVTSSFQPTHWKLDNGHLVLKPIPKLWFSS | failed |
| MAQRQPHSPNQTLISITNDTESSSSVVSNDNTNKGWSGDNSPGIEALCAIYITYAVIISVGILGNAILIKVFFKTKSMQTVPNIFITSLAFGDLLLLLTCVPVDATHYLAEGWLFGRIGCKVLSFIRLTSVGVSVFTLTILSADRYKAVVKPLERQPSNAILKTCVKAGCVWIVSMIFALPEAIFSNVYTFRDPNKNMTFESCTSYPVSKKLLQEIHSLLCFLVFYIIPLSIISVYYSLIARTLYKSTLNIPTEEQSHARKQIESRKRIARTVLVLVALFALCWLPNHLLYLYHSFTSQTYVDPSAMHFIFTIFSRVLAFSNSCVNPFALYWLSKSFQKHFKAQLFCCKAERPEPPVADTSLTTLAVMGTVPGTGSIQMSEISVTSFTGCSVKQAEDRF | failed |
| MVFCRGCAKEISDDAGTCPHCGAPQLIISSASANKEAPASGNWYFEVLKKYAVFTGRARRKEYWMFFLFNVLISIVIGVIGGLVGDGGILANLYSLAVLVPGIAVGVRRLHDTDRSGWWLLVPIANLVFLVQEGHAGPNRFGPSPK | failed |
| MKKPNHSGSGQIRIIGGQWRGRKLPVPDSPGLRPTTDRVRETLFNWLAPVIVDAQCLDCFAGSGALGLEALSRYAAGATLIEMDRAVSQQLIKNLATLKAGNARVVNSNAMSFLAQKGTPHNIVFVDPPFRRGLLEETINLLEDNGWLADEALIYVESEVENGLPTVPANWSLHREKVAGQVAYRLYQREAQGESDAD | not failed |
| MLLYVLIISNDKKLIEEARKMAEKANLELRTVKTEDELKKYLEEFRKESQNIKVLILVSNDEELDKAKELAQKMEIDVRTRKVTSPDEAKRWIKEFSEEGGSLEHHHHHH | not failed |
| MATNSSTEQSLTKKVWNLATTLAGQGIGFTDYITQLTYLLFLKMDAENVEMFGEESAIPTGYQWADLIAFDGLDLVKQYEETLKLLSELDNLIGTIYTKAQNKIDKPVYLKKVITMIDEEQWLIMDGDVKGAIYESILEKNGQDKKSGAGQYFTPRPLIQAMVDCINPQMGETVCDPACGTGGFLLTAYDYMKGQSASKEKRDFLRDKALHGVDNTPLVVTLASMNLYLHGIGTDRSPIVCEDSLEKEPSTLVDVILANPPFGTRPAGSVDINRPDFYVETKNNQLNFLQHMMLMLKTGGRAAVVLPDNVLFEAGAGETIRKRLLQDFNLHTILRLPTGIFYAQGVKANVLFFSKGQPTKEIWFYDYRTDIKHTLATNKLERHHLDDFVSCYNNRVEIYDAENNPQGRWRKYPVDEIIARDKTSLDITWIKPGGEVDDRSLAEL | not failed |
| MLVVAVVFPVLAFIFLGGVVFYTRKQNKPKNKRAASVEVDENNEDGVKVNNSELKKLTKIKKIKGSKIYLKNGAIRVNLGISSPDFELLTDEEQTSFEDCLMMSALSLNFPVQFHTTLKKIEIKEPAELVEKTMNSSDSLISDNLRDYCSQLYSSYKKLEHEKGIFVRKSFCTVGAYLPDRDEKKVLNELQSRIDNIAGGLSRARMKINLLNSESTAQILADLFNRGKNIKIETLEKDGAFDLYSEGVGQVVEVQEG | failed |
